Numbering of substitutions follows the chain as printed. Names and notes keep the numbering of the source.
Biological target: T1, EsCas13d, nuclease-dead (Eubacterium siraeum, UniProt B0MS50, R295A;H300A;R849A;H854A)
T1 sequence: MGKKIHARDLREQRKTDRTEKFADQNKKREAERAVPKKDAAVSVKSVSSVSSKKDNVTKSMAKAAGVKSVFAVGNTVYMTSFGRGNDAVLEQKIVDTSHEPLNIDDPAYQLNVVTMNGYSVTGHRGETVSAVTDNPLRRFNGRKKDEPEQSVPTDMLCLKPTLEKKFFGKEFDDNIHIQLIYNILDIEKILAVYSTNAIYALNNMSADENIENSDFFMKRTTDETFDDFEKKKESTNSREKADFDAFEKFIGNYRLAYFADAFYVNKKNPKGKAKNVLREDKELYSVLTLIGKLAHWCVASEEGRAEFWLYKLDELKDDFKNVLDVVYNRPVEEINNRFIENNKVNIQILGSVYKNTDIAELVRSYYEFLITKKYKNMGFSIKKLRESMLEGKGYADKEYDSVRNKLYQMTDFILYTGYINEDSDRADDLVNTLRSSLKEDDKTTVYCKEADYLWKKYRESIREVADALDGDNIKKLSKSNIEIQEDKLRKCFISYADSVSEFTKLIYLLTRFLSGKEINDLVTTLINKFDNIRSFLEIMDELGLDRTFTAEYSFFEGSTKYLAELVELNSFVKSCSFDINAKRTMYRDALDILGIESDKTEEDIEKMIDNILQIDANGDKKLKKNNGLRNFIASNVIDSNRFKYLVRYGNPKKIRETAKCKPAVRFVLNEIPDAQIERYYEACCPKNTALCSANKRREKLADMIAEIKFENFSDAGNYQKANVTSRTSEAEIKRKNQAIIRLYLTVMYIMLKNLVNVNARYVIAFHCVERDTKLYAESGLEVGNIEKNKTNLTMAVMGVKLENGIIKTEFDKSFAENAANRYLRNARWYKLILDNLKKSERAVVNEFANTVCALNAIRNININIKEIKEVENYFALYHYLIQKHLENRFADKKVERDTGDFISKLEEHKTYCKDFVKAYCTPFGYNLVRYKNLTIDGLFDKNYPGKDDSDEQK
Assay: crRNA (strand 1, pre-loaded); Mg2+; 40 mM Tris-HCl pH 7.5, 150 mM NaCl, 6 mM MgCl2, 1 mM DTT, 0.1% Tween-20, 0.2 mg/ml BSA; 25 C; 10 min per concentration, then washed
Conditions: tags: His6-TwinStrep-SUMO cleaved; N-terminal SNAP kept (SNAP-Surface 488); label: 3' end held by stalled T7 RNA polymerase

B1: target 1 C21A (mixed)
RNA 1: CACCCGUGCAAAAAUGCAGGGGUCUAAAACUGAGCGGAUAACCUCUCUAUGG
RNA 2: GGGAAUGGAUCCACAUCUACGAAUUCGUACAAUAGAGAGGUUAUCCGCUCACCGAGAUCGGAAGAGCACACGU
B1 was tested, and the Kd was 24.1 ± 2 nM.

B2: target 1 insC 3' of 14,insA 3' of 2 (mixed)
RNA 1: B1 RNA 1
RNA 2: GGGAAUGGAUCCACAUCUACGAAUUCGUACCAUAGAGACGGUUAUCCGCUCAACCGAGAUCGGAAGAGCACACGU
Work on B2 yielded a Kd of 52 ± 13 nM.

B3: target 1 insC 3' of 18,insU 3' of 6 (mixed)
RNA 1: B1 RNA 1
RNA 2: GGGAAUGGAUCCACAUCUACGAAUUCGUACCAUACGAGAGGUUAUCCUGCUCACCGAGAUCGGAAGAGCACACGU
B3 was tested, and the Kd was 39 ± 4 nM.

B4: target 1 C2G,C4A (mixed)
RNA 1: B1 RNA 1
RNA 2: B1 RNA 2 with A31C, C48A, C50G
Work on B4 yielded a Kd of 6.94 ± 0.32 nM.

B5: target 1 insC 3' of 8,insG 3' of 2 (mixed)
RNA 1: B1 RNA 1
RNA 2: B2 RNA 2 with C39G, G41U, U43A, A44U, U45C, A52G
B5 showed a Kd of 21 ± 1.5 nM.

B6: target 1 C7U,U11G (mixed)
RNA 1: B1 RNA 1
RNA 2: B1 RNA 2 with A31C, U41G, C45U
With B6 the Kd was 9.7 ± 0.6 nM.

B7: target 1 C7G,U19C (mixed)
RNA 1: B1 RNA 1
RNA 2: B1 RNA 2 with A31C, U33C, C45G
For B7, the Kd was 32.2 ± 2.7 nM.

B8: target 1 insU 3' of 9,insG 3' of 9 (mixed)
RNA 1: B1 RNA 1
RNA 2: GGGAAUGGAUCCACAUCUACGAAUUCGUACCAUAGAGAGGUUAUGUCCGCUCACCGAGAUCGGAAGAGCACACGU
B8 gave a Kd of 13.2 ± 0.5 nM.

B9: target 1 insA 3' of 12,insG 3' of 8 (mixed)
RNA 1: B1 RNA 1
RNA 2: B8 RNA 2 with U41A, A43U, U44A, G45U, U46G
In the case of B9, the Kd is reported as 32 ± 2.7 nM.

B10: target 1 insC 3' of 20,insC 3' of 1 (mixed)
RNA 1: B1 RNA 1
RNA 2: B2 RNA 2 with U33C, A34U, G35A, A36G, G37A, A38G, C39A, A53C
B10 showed a Kd of 8 ± 0.5 nM.

B11: target 1 C6U,U11C (mixed)
RNA 1: B1 RNA 1
RNA 2: B1 RNA 2 with A31C, U41C, C46U
Work on B11 yielded a Kd of 9.1 ± 0.6 nM.

B12: target 1 U8C,U19G (mixed)
RNA 1: B1 RNA 1
RNA 2: B1 RNA 2 with A31C, U33G, U44C
Binder B12 has a Kd of 76 ± 10 nM.

B13: target 1 A9G (mixed)
RNA 1: B1 RNA 1
RNA 2: B1 RNA 2 with A31C, A43G
With B13 the Kd was 13.2 ± 0.4 nM.

B14: target 1 insA 3' of 21,insG 3' of 19 (mixed)
RNA 1: B1 RNA 1
RNA 2: B8 RNA 2 with U33A, A34U, G40A, U41G, U42G, A43U, G45A
With B14 the Kd was 51 ± 5 nM.

B15: target 1 del9,del15 (mixed)
RNA 1: B1 RNA 1
RNA 2: GGGAAUGGAUCCACAUCUACGAAUUCGUACCAUAGAAGGUUUCCGCUCACCGAGAUCGGAAGAGCACACGU
Binder B15 has a Kd of 44 ± 6 nM.

B16: target 1 insC 3' of 14,insA 3' of 11 (mixed)
RNA 1: B1 RNA 1
RNA 2: B8 RNA 2 with G39C, U41G, G45A
B16 was tested, and the Kd was 42 ± 5 nM.

B17: target 1 C6U,U19A (mixed)
RNA 1: B1 RNA 1
RNA 2: B1 RNA 2 with A31C, U33A, C46U
For B17, the Kd was 34.9 ± 2.4 nM.

B18: target 1 insU 3' of 12 (mixed)
RNA 1: B1 RNA 1
RNA 2: GGGAAUGGAUCCACAUCUACGAAUUCGUACCAUAGAGAGGUUUAUCCGCUCACCGAGAUCGGAAGAGCACACGU
Work on B18 yielded a Kd of 7.54 ± 0.28 nM.

B19: target 1 insU 3' of 12,insG 3' of 4 (mixed)
RNA 1: B1 RNA 1
RNA 2: B2 RNA 2 with C39G, G41U, U50G, C51U, A52C
Binder B19 has a Kd of 4.6 ± 0.17 nM.

B20: target 1 insC 3' of 11,insC 3' of 3 (mixed)
RNA 1: B1 RNA 1
RNA 2: B2 RNA 2 with C39G, G41U, U42C, A52C
Binder B20 has a Kd of 28.9 ± 2.7 nM.

B21: target 1 insA 3' of 13,insC 3' of 11 (mixed)
RNA 1: B1 RNA 1
RNA 2: B8 RNA 2 with G40A, U41G, A43C, G45A
B21 was tested, and the Kd was 7.8 ± 0.6 nM.

B22: target 1 insG 3' of 20,insA 3' of 7 (mixed)
RNA 1: B1 RNA 1
RNA 2: B3 RNA 2 with U33G, A34U, C35A, C47A, U48C
For B22, the Kd was 26.1 ± 3 nM.

B23: target 1 C4A,G13U (mixed)
RNA 1: B1 RNA 1
RNA 2: B1 RNA 2 with A31C, G39U, C48A
Work on B23 yielded a Kd of roughly 70 nM.

B24: target 1 U3A,U8A (mixed)
RNA 1: B1 RNA 1
RNA 2: B1 RNA 2 with A31C, U44A, U49A
B24 showed a Kd of 10.6 ± 0.5 nM.

B25: target 1 insU 3' of 5,insU 3' of 5 (mixed)
RNA 1: B1 RNA 1
RNA 2: B8 RNA 2 with G45C, U46C, C47G, C48U, G49U
B25 was tested, and the Kd was 19 ± 4 nM.

B26: target 1 C6U,G17U (mixed)
RNA 1: B1 RNA 1
RNA 2: B1 RNA 2 with A31C, G35U, C46U
Binder B26 has a Kd of 22.3 ± 1.5 nM.

B27: target 1 U10A,A16U (mixed)
RNA 1: B1 RNA 1
RNA 2: B1 RNA 2 with A31C, A36U, U42A
Work on B27 yielded a Kd of 42 ± 4 nM.

B28: target 1 A14G,G17U (mixed)
RNA 1: B1 RNA 1
RNA 2: B1 RNA 2 with A31C, G35U, A38G
B28 showed a Kd of 78 ± 15 nM.

B29: target 1 insC 3' of 14,insC 3' of 5 (mixed)
RNA 1: B1 RNA 1
RNA 2: B2 RNA 2 with U50C, C51U, A52C
Work on B29 yielded a Kd of 75 ± 17 nM.

B30: target 1 insA 3' of 15,insU 3' of 7 (mixed)
RNA 1: B1 RNA 1
RNA 2: B3 RNA 2 with C35G, G36A, A37G, G38A, C47U, U48C
Work on B30 yielded a Kd of 13.5 ± 0.9 nM.

B31: target 1 insG 3' of 6,insC 3' of 3 (mixed)
RNA 1: B1 RNA 1
RNA 2: B2 RNA 2 with C39G, G41U, U43A, A44U, U45C, C47G, A52C
B31 showed a Kd of 13.7 ± 0.8 nM.

B32: target 1 G13A,G17U (mixed)
RNA 1: B1 RNA 1
RNA 2: B1 RNA 2 with A31C, G35U, G39A
Binder B32 has a Kd of 28.6 ± 2.7 nM.

B33: target 1 insG 3' of 14,insG 3' of 11 (mixed)
RNA 1: B1 RNA 1
RNA 2: B8 RNA 2 with U41G, A43G, G45A
B33 showed a Kd of 20.7 ± 0.9 nM.

B34: target 1 insA 3' of 13,insC 3' of 5 (mixed)
RNA 1: B1 RNA 1
RNA 2: B2 RNA 2 with C39G, G40A, U50C, C51U, A52C
Binder B34 has a Kd of 3.35 ± 0.18 nM.

B35: target 1 insC 3' of 17,insG 3' of 6 (mixed)
RNA 1: B1 RNA 1
RNA 2: B3 RNA 2 with C35G, G36C, U48G
B35 showed a Kd of 43 ± 8 nM.
